From paper PMC11076555, “Dishevelled2 activates WGEF via its interaction with a unique internal peptide motif of the GEF” (Communications Biology, 2024) come the findings set out here.

Test [1] has as its target T1, Dvl2^PDZ (PDZ domain of human Dishevelled2) (Homo sapiens, UniProt O14641).
T1 construct: introducing a stop codon after C354 residue of Dvl2^PDZ to eliminate the fused peptide, cloned at the C-termini of PDZ; 6xHis (N, cleaved yes); host or cells: E. coli Rosetta (DE3)
T1 sequence (O14641 267-339 limits assumed): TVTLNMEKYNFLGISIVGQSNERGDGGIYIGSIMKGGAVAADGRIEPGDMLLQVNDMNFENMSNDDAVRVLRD
Description: Microscale thermophoresis (MST) binding to Dvl2^PDZ. Conditions: Monolith NT.115, 50 nM Red-maleimide labelled Dvl2^PDZ, 10 mM Tris–HCl pH 8, 150 mM NaCl, 2 mM DTT, 5% glycerol, 0.05% Tween20, 30 min at 25 °C, peptides diluted 1:2 16 times from ~3.4 mM, hWGEF 138–0.0042 µM, Kd fit model, triplicates, read-out: Kd (dissociation constant) for Dvl2^PDZ. The procedure: MST experiments were performed using Monolith NT.115 instrument from Nanotemper technologies. Dvl2^PDZ domain was fluorescently labelled as per the instructions, using Monolith Redmaleimide 2nd generation-cysteine reactive label. The experimental condition consists of 10 mM Tris–HCl pH8, 150 mM NaCl, 2 mM DTT, 5% Glycerol and 0.05% Tween20. For Dvl2^PDZ-peptide affinity determination, synthetic WGEF peptides were serially diluted (1:2) 16 times, starting from an approximate concentration of 3.4 mM. 50 nM of fluorescently labelled Dvl2^PDZ domain was added to the serially diluted peptides, followed by incubation at 25 °C for 30 minutes. Thermophoresis signals were recorded at 20% of excitation power and 40% MST at 25 °C. Data was fitted using the Kd fit model in the MO. Affinity Analysis v2.3 software. Like peptides, hWGEF (330–581) protein was serially diluted to obtain a protein concentration range of 138–0.0042 µM. Experimental conditions were the same as mentioned above for peptides. […]
Guanine nucleotide exchange assays were performed in triplicates. Fluorescence decrease was fitted using a single exponential decay mode in GraphPad Prism. […] Statistical significance was calculated using ordinary One-way ANOVA with multiple comparisons. * Represents adjust P value with statistical significance of ****P < 0.0001, ***P < 0.001, **P < 0.01 and *P ≤ 0.01. […]

The subject of test [2] is xWGEF330. Description: In vitro guanine nucleotide exchange (GEF) assay, activation of xWGEF330 by Dvl2^PDZ. The class given is biochemical, Xenopus laevis. Conditions: 5 µM xWGEF330, 2 µM Mant-GDP loaded RhoA, 25 °C, triplicates. As to the method: Guanine nucleotide exchange assays were carried out using RhoA loaded with fluorescently labelled Mant-GDP[63],[64]. Briefly, 150 μM of RhoA was incubated with 5 Molar excess of fluorescent label, i.e., Mant-GDP in a buffer containing 10 mM Tris pH 8, 150 mM NaCl, 2 mM DTT, 5 mM EDTA, 0.5 mM MgCl2 and 5% Glycerol. The reaction was incubated on ice for 30 min, followed by the addition of 10 mM MgCl2 to stop the reaction. Excess Mant-GDP was removed through buffer exchange and Mant-GDP loaded RhoA was concentrated and stored at −80 °C. For assays, 2 μM of Mant-GDP loaded RhoA was incubated with 5 μM of xWGEF in the presence or absence of hDvl2^PDZ (0 μM, 25 μM and 50 μM) for 30 min at 25 °C. […] Once the fluorescence was stable, excess GTP (10x of labelled GTPase) was added to start the exchange reaction. […] A decrease in fluorescence was recorded using a BioTek Cytation5 plate reader with excitation and emission of 360 and 440 nm, respectively. Fluorescence was normalized and decrease was fitted using a single exponential decay mode in GraphPad Prism. […]
Guanine nucleotide exchange assays were performed in triplicates. Fluorescence decrease was fitted using a single exponential decay mode in GraphPad Prism. […]

B1: hWGEF: recombinant human WGEF construct, residues from 330 to 581 (protein)
chain: PPRANLSPSSSFRAQRSARGSTFSLWQDIPDVRGSGVLATLSLRDCKLQEAKFELITSEASYIHSLSVAVGHFLGSAELSECLGAQDKQWLFSKLPEVKSTSERFLQDLEQRLEADVLRFSVCDVVLDHCPAFRRVYLPYVTNQAYQERTYQRLLLENPRFPGILARLEESPVCQRLPLTSFLILPFQRITRLKMLVENILKRTAQGSEDEDMATKAFNALKELVQECNASVQSMKRTEELIHLSKKIHFEG
modifications: left off: GST, N-terminal, cleaved
Turning to B1, the dissociation constant (Kd) in test [1] came to 7.9 ± 0.3 µM.

B2: Dvl2^PDZ: recombinant PDZ domain of human Dishevelled2 (protein)
chain: MSLNIITVTLNMEKYNFLGISIVGQSNERGDGGIYIGSIMKGGAVAADGRIEPGDMLLQVNDMNFENMSNDDAVRVLRDIVHKPGPIVLTVAKC
modifications: Monolith Red-maleimide 2nd generation cysteine-reactive fluorescent label (in the MST experiments); left off: His6, N-terminal, cleaved
notes: recombinant PDZ domain of human Dishevelled2
Turning to B2, the “Change in GEF activity of xWGEF330” value in test [2] (25 µM Dvl2^PDZ) is “did not show any observable change”; in test [2] (50 µM Dvl2^PDZ (10-fold excess)), “fourfold increase”.

In general, Kd refers to a measure of binding affinity in units of concentration.
